What was measured:
[1] = Solubility of expressed lysins and chimeras; conditions: qualitative
Description: In another embodiment, the lysin is a chimeric protein that comprises an endopeptidase domain of the S. aureus Twort lysin upstream of the phiNM3 CWT domain (SEQ ID NO:1). The chimeric polypeptide is preferably sufficiently soluble in phosphate buffered saline (PBS). Preferred levels of solubility in PBS for the chimeric lysins is at least about 1 mg/ml and more preferably at least about 3 mg/mL. in PBS. […] One example of such a lysin is provided in SEQ ID NO:2 (AD127), shown in FIG. 5A and consisting of the Twort lysin endopeptidase domain attached to the phiNM3 CWT domain (SEQ ID NO:1). The isolated polypeptide of SEQ ID NO:2 (AD 127) was constructed by engineering S. epidermidis autolysin amidase and Twort lysin endopeptidase domains upstream of phiNM3 CWT domain, respectively.
Traditionally, Bacillus-specific lysins are expressed at high levels and are soluble in E. coli. Therefore, our first attempt was to engineer a 16-amino acid peptide (4) that is conserved in several S. aureus-specific lysins (Lu J Z, Fujiwara T, Komatsuzawa H, Sugai M, Sakon J. 2006. Cell wall-targeting domain of glycylglycine endopeptidase distinguishes among peptidoglycan cross-bridges. (Lue et al. (2006) J. Biol. Chem. 281(1):549-58) The catalytic domain of the Bacillus-specific lysin PlyB was used to generate chimera AD 103 (FIG. 4) (SEQ ID NO: 13). The chimeras were tested for expression, solubility and activity. Then the entire C-terminal CWT domain of PlyB (6) was replaced by the putative C-terminal domain of S. aureus phage Twort lysin (8) to obtain AD 105 (SEQ ID NO: 14). […] Since the lysostaphin catalytic domain […] (10) in AD 112 was of bacterial origin, we attempted to engineer a phage-derived catalytic domain upstream of the lysostaphin CWT. For this, the endopeptidase domain in Twort lysin (14) was used to construct chimera AD 119 (SEQ ID NO:3).

[2] = test system: E. coli; experiment: Binding of FITC-labeled phiNM3 CWT to bacterial cells, fluorescence microscopy; conditions: FITC-labeled protein 50 μg, 10 minutes
Excerpt: (§1) Most preferably, the binding molecule is a soluble binding domain of a bacterial lysin comprising a polypeptide including an amino acid sequence providing specific binding to S. aureus, such as SEQ ID NO:1 (phiNM3 CWT domain). For example, the lysin preferably includes the polypeptide sequence of S. aureus phage phiNM3 lysin (SEQ ID NO:1) (protein accession number YP_908849). The phiNM3 lysin CWT domain (SEQ ID NO:1) corresponding to amino acid residues 158-251 was cloned and expressed. […] FIG. 2A is […] showing the protein of SEQ ID NO:1 in a second column next to a set of marker proteins in a first column. […] Group A streptococci, E. coli and Bacillus cereus were used as controls.
(§2) Fluorescent labeling and binding analyses were performed on phiNM3 CWT. S. aureus strain 8325-4 genomic DNA was used to amplify the putative CWT of phiNM3 lysin using primers NM3-FWD […]-3′ (SEQ ID NO:10) and NM3-REV 5′-[…]-3′(SEQ ID NO:11). The resulting amplicon was cloned into the arabinose-inducible expression vector pBAD24. Positive clones containing the insert were confirmed by sequencing. The approximately 10-kDa phiNM3 CWT protein was expressed and the protein was purified in one step by cation-exchange chromatography. The purified protein (1 mg/ml) was incubated with 10 μl of FITC (1 mg/ml) for 1 hour. Excess FITC was removed on a desalting column. The labeled-protein (50 μg) was incubated with bacterial cells for 10 minutes, washed 3× with phosphate-buffered saline (pH 7.4) and observed under fluorescence microscope.

[3] = test system: S. epidermidis; experiment: as above; conditions: FITC-labeled protein 50 μg, 10 minutes
Excerpt: as §1, §2

[4] = test system: Group A streptococci; experiment: as above; conditions: FITC-labeled protein 50 μg, 10 minutes
Excerpt: as §1, §2

[5] = test system: Bacillus cereus; experiment: as above; conditions: FITC-labeled protein 50 μg, 10 minutes
Excerpt: as §1, §2

[6] = test system: S. aureus; experiment: as above; set-up: species or system Staphylococcus aureus; conditions: FITC-labeled protein 50 μg, 10 minutes; single or mixed populations
Excerpt: as §1
as §2, with “The approximately 10-kDa phiNM3 CWT protein was expressed and the protein was purified in one step by cation-exchange chromatography. The purified protein (1 mg/ml) was incubated with 10 μl of FITC (1 mg/ml) for 1 hour. Excess FITC was removed on a desalting column.” left out

B1: phiNM3 CWT domain: cell wall targeting domain, amino acid residues 158-251 of S. aureus phage phiNM3 lysin, approximately 10-kDa; tested FITC-labeled (protein)
chain: GKSASKITVGSKAPYNLKWSKGAYFNAKIDGLGATSATRYGDNRTNYRFDVGQAVYAPGTLIYVFEIIDGWCRIYWNNHNEWIWHERLIVKEVF
modifications: FITC label; Staphylococcus aureus phage phiNM3
notes: cell wall targeting domain, amino acid residues 158-251 of S. aureus phage phiNM3 lysin, approximately 10-kDa; tested FITC-labeled
[1]
  solubility of the expressed protein: highly soluble
[2]
  binding to E. coli: not observed
[3]
  binding to S. epidermidis cells: bound specifically
[4]
  binding to streptococci: not observed
[5]
  binding to Bacillus: not observed
[6]
  binding to S. aureus cells: bound specifically

Source: patent US11827911B2, “Chimeric bacteriophage lysin with activity against Staphylococci bacteria” (priority 2008, dated 2023)
